The source of these data is doi:10.1101/2020.11.24.396648.

What all share (test): cryo-EM structure
In assay [1] the target is E. faecalis 70S ribosome (Enterococcus faecalis (endogenous in TX5332)).
In assay [2] the target is L. monocytogenes 70S ribosome (Listeria monocytogenes (endogenous in EDG-e)) (UniProt B8DAY5).
Assay [3] deals with S. aureus 70S ribosome (Staphylococcus aureus (endogenous in SH1000)) (UniProt P48940).

A value given as a limit tells only on which side of the number the result lay.

Sequence of UniProt P48940 (P48940 whole entry, looked up): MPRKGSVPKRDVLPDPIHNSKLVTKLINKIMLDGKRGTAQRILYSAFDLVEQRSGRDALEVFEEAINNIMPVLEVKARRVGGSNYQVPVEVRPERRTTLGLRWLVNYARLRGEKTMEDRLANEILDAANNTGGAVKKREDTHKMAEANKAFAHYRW

For “E. faecalis LsaA-EQ2-HTF (ATPase-deficient E142Q/E452Q, C-terminal His6-TEV-FLAG3 tag) (natural protein)”, the occupancy of the factor on the ribosome (percent of picked ribosomal particles) in assay [1] is above 95%.

As for “L. monocytogenes VgaL-EQ2-HTF (Lmo0919, ATPase-deficient E104Q/E408Q, C-terminal His6-TEV-FLAG3 tag) (natural protein)”, the occupancy of the factor on the ribosome (percent of picked ribosomal particles) in assay [2] was 70%.

For “S. haemolyticus VgaALC-EQ2-FLAG3 (ATPase-deficient E105Q/E410Q, C-terminal FLAG3 tag) (natural protein)”, in assay [3], the occupancy of the factor on the ribosome (percent of picked ribosomal particles) worked out at 60%.
